These results are taken from patent US20100080799.

Series [1] deals with recombinant H2A.X (WT), N-terminal 6xHis tag.
In series [2] the target is recombinant H2A.X Y142F, N-terminal 6xHis tag.

B1: co-expressed N-motif and C-motif of the WSTF kinase domain (protein)
chain 1: MAPLLGRKPFPLVKPLPGEEPLFTIPHTQEAFRTREEYEARLERYSERIWTCKSTGSSQLTHKEAWEEEQEVAELLKEEFPAWYEKLVLEMVHHNTASLEKLVDTAWLEIMTKYAVGEECDFEVGKEKMLKVKIVKIHPLEKVDEEATEKKSDGACDSPSSDKENSSQIAQDHQKKETVVKEDEGRRESINDRARRSPRKLPTSL
chain 2: GERKWAPPKFLPHKYDVKLQNEDKIISNVPADSLIRTERPPNKEIVRYFIRHNALRAGTGENAPWVVEDELVKKYSLPSKFSDFLLDPYKYMTLNPSTKRKNTGSPDRKPSKKSKTDNSSLSSPLNPKLWCHVHLKKS
In the case of B1, the “kinase activity (in vitro kinase assay)” value in series [1] was “The co-expressed N-motif and C-motif had significant kinase activity towards H2A.X”.

B2: recombinant WSTF 1-345 construct (protein)
chain: MAPLLGRKPFPLVKPLPGEEPLFTIPHTQEAFRTREEYEARLERYSERIWTCKSTGSSQLTHKEAWEEEQEVAELLKEEFPAWYEKLVLEMVHHNTASLEKLVDTAWLEIMTKYAVGEECDFEVGKEKMLKVKIVKIHPLEKVDEEATEKKSDGACDSPSSDKENSSQIAQDHQKKETVVKEDEGRRESINDRARRSPRKLPTSLKKGERKWAPPKFLPHKYDVKLQNEDKIISNVPADSLIRTERPPNKEIVRYFIRHNALRAGTGENAPWVVEDELVKKYSLPSKFSDFLLDPYKYMTLNPSTKRKNTGSPDRKPSKKSKTDNSSLSSPLNPKLWCHVHLKKS
Consider B2, for which, in series [2], the “in vitro kinase assay” value is given as “its activity towards a Y142F mutant was much reduced”. Also, the “kinase activity (in vitro kinase assay)” value in series [1] is on record as “the 1-345 amino acid construct of WSTF had much more potent kinase activity (>50 fold) than the 1-340 construct”.

B3: recombinant full length human WSTF (Flag-epitope-tagged at C terminus) (protein)
chain: MAPLLGRKPFPLVKPLPGEEPLFTIPHTQEAFRTREEYEARLERYSERIWTCKSTGSSQLTHKEAWEEEQEVAELLKEEFPAWYEKLVLEMVHHNTASLEKLVDTAWLEIMTKYAVGEECDFEVGKEKMLKVKIVKIHPLEKVDEEATEKKSDGACDSPSSDKENSSQIAQDHQKKETVVKEDEGRRESINDRARRSPRKLPTSLKKGERKWAPPKFLPHKYDVKLQNEDKIISNVPADSLIRTERPPNKEIVRYFIRHNALRAGTGENAPWVVEDELVKKYSLPSKFSDFLLDPYKYMTLNPSTKRKNTGSPDRKPSKKSKTDNSSLSSPLNPKLWCHVHLKKSLSGSPLKVKNSKNSKSPEEHLEEMMKMMSPNKLHTNFHIPKKGPPAKKPGKHSDKPLKAKGRSKGILNGQKSTGNSKSPKKGLKTPKTKMKQMTLLDMAKGTQKMTRAPRNSGGTPRTSSKPHKHLPPAALHLIAYYKENKDREDKRSALSCVISKTARLLSSEDRARLPEELRSLVQKRYELLEHKKRWASMSEEQRKEYLKKKREELKKKLKEKAKERREKEMLERLEKQKRYEDQELTGKNLPAFRLVDTPEGLPNTLFGDVAMVVEFLSCYSGLLLPDAQYPITAVSLMEALSADKGGFLYLNRVLVILLQTLLQDEIAEDYGELGMKLSEIPLTLHSVSELVRLCLRRSDVQEESEGSDTDDNKDSAAFEDNEVQDEFLEKLETSEFFELTSEEKLQILTALCHRILMTYSVQDHMETRQQMSAELWKERLAVLKEENDKKRAEKQKRKEMEAKNKENGKVENGLGKTDRKKEIVKFEPQVDTEAEDMISAVKSRRLLAIQAKKEREIQEREMKVKLERQAEEERIRKHKAAAEKAFQEGIAKAKLVMRRTPIGTDRNHNRYWLFSDEVPGLFIEKGWVHDSIDYRFNHHCKDHTVSGDEDYCPRSKKANLGKNASMNTQHGTATEVAVETTTPKQGQNLWFLCDSQKELDELLNCLHPQGIRESQLKERLEKRYQDIIHSIHLARKPNLGLKSCDGNQELLNFLRSDLIEVATRLQKGGLGYVEETSEFEARVISLEKLKDFGECVIALQASVIKKFLQGFMAPKQKRRKLQSEDSAKTEEVDEEKKMVEEAKVASALEKWKTAIREAQTFSRMHVLLGMLDACIKWDMSAENARCKVCRKKGEDDKLILCDECNKAFHLFCLRPALYEVPDGEWQCPACQPATARRNSRGRNYTEESASEDSEDDESDEEEEEEEEEEEEEDYEVAGLRLRPRKTIRGKHSVIPPAARSGRRPGKKPHSTRRSQPKAPPVDDAEVDELVLQTKRSSRRQSLELQKCEEILHKIVKYRFSWPFREPVTRDEAEDYYDVITHPMDFQTVQNKCSCGSYRSVQEFLTDMKQVFTNAEVYNCRGSHVLSCMVKTEQCLVALLHKHLPGHPYVRRKRKKFPDRLAEDEGDSEPEAVGQSRGRRQKK
For B3, the “in vitro kinase assay (32P autoradiography)” value in series [2] is listed as “WSTF phosphorylated the WT but not Y142F H2A.X”; in series [1] it was “The recombinant full length WSTF protein phosphorylated H2A.X-containing nucleosomes”. Moreover, the “in vitro kinase assay” value in series [1] is given as “Full length recombinant WSTF proteins isolated from insect cells phosphorylated free H2A.X protein in the presence of Mn^2+”.

B4: recombinant WSTF 1-359 C338A point mutant (protein)
chain: MAPLLGRKPFPLVKPLPGEEPLFTIPHTQEAFRTREEYEARLERYSERIWTCKSTGSSQLTHKEAWEEEQEVAELLKEEFPAWYEKLVLEMVHHNTASLEKLVDTAWLEIMTKYAVGEECDFEVGKEKMLKVKIVKIHPLEKVDEEATEKKSDGACDSPSSDKENSSQIAQDHQKKETVVKEDEGRRESINDRARRSPRKLPTSLKKGERKWAPPKFLPHKYDVKLQNEDKIISNVPADSLIRTERPPNKEIVRYFIRHNALRAGTGENAPWVVEDELVKKYSLPSKFSDFLLDPYKYMTLNPSTKRKNTGSPDRKPSKKSKTDNSSLSSPLNPKLWAHVHLKKSLSGSPLKVKNSKNS
On to B4, for which, in series [1], the “kinase activity (in vitro kinase assay)” value is “the activity of a point mutant at C338 (C338A) was greatly diminished (<50 fold, FIG. 3F)”.

B5: recombinant WSTF 1-340 construct (protein)
chain: MAPLLGRKPFPLVKPLPGEEPLFTIPHTQEAFRTREEYEARLERYSERIWTCKSTGSSQLTHKEAWEEEQEVAELLKEEFPAWYEKLVLEMVHHNTASLEKLVDTAWLEIMTKYAVGEECDFEVGKEKMLKVKIVKIHPLEKVDEEATEKKSDGACDSPSSDKENSSQIAQDHQKKETVVKEDEGRRESINDRARRSPRKLPTSLKKGERKWAPPKFLPHKYDVKLQNEDKIISNVPADSLIRTERPPNKEIVRYFIRHNALRAGTGENAPWVVEDELVKKYSLPSKFSDFLLDPYKYMTLNPSTKRKNTGSPDRKPSKKSKTDNSSLSSPLNPKLWCHV
Take B5: the “kinase activity (in vitro kinase assay)” value in series [1] is “the activity of the 1-340 amino acid construct was much reduced (<50 fold) in comparison to the other constructs”.
